Results from article PMC6941992, “Polar recruitment of RLD by LAZY1-like protein during gravity signaling in root branch angle control” (Nature Communications, 2020).

Molecular target: T1, RLD2 BRX domain (residues 1006-1066) (Arabidopsis thaliana, UniProt F4K0X5 1006-1066)
T1 construct: HRV3C cleavage may leave vector residues at the N-terminus (surmised); source: E. coli BL21Star (DE3), purified (His-tag resin, HRV3C cleavage, gel filtration); for crystals co-expressed with LZY3 (274-287); not shown: His6, N-terminal, cleaved
T1 sequence (looked up): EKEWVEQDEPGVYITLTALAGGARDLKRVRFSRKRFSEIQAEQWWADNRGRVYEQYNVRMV
Experiment: ITC; iTC200, 20 °C; 20 mM Tris-HCl pH 8.0, 150 mM NaCl; 200 μM LZY3 (274-287) injected into 20 μM RLD2 BRX domain; 1:1 binding model
Settings: both partners purified

- Kd: 9.7 ± 2.2 nM
- dH: -11.3 ± 0.09 kcal/mol
- stoichiometry N: 0.73 ± 0.002
B1: LZY3 CCL peptide (residues 274-287) (peptide, UniProt Q5XVG3 274-287, looked up)
chain: KWVKTDSDFIVLEI
notes: LZY3 (LAZY1-LIKE 3), Arabidopsis thaliana, residues 274-287 (CCL domain); HRV3C cleavage may leave vector residues at the N-terminus (surmised); also called CCL β-hairpin; source: E. coli BL21Star (DE3), purified (glutathione sepharose, HRV3C cleavage, gel filtration, reverse phase); for crystals co-expressed with RLD2; not shown: GST, N-terminal, cleaved
